Tested on: T1, C=C(OP(=O)(O)O)C(=O)O
T1 construct: full-length liver isozyme; homotetramer; purified or partially purified
Assay: enzyme kinetics, PEP concentration at half Vmax
Assay type: biochemical, Homo sapiens
Conditions: no allosteric effector; apparent affinity (not an association constant)
Excerpt: enzyme kinetics, PEP concentration at half Vmax on hLPYK | Ka-PEP (the kinetic equivalent to Kia-PEP), the apparent affinity for PEP

Chain of hLPYK (Homo sapiens) (chain, as listed by the source): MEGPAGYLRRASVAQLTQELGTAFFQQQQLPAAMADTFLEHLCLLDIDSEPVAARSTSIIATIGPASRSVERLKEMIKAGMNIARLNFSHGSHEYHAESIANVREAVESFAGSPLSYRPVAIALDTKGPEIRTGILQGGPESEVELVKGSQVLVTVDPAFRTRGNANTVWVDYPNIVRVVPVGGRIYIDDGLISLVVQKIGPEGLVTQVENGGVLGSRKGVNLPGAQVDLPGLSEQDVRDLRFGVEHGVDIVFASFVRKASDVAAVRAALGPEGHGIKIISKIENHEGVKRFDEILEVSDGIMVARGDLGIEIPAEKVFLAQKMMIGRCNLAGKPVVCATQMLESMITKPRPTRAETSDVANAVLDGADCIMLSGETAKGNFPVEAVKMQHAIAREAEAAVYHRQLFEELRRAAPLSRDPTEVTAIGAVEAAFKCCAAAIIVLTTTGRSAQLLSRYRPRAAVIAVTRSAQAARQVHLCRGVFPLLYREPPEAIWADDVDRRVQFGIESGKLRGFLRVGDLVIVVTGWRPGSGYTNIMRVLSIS

hLPYK (Homo sapiens) was tested, and the K0.5 was 0.22 mM.

From PMC10176505, “PYK-SubstitutionOME: an integrated database containing allosteric coupling, ligand affinity and mutational, structural, pathological, bioinformatic and computational information about pyruvate kinase isozymes” (Database: The Journal of Biological Databases and Curation, 2023)
